{"source": "patent US20150329614A1", "about": "(Novartis, published 2015)", "binders": {"B1": {"name": "hIGF-1-Ea-Fc_mut 13/2_A (Fc fusion)", "chain": "TLCGAELVDALQFVCGDRGFYFNKPTGYGSSSQAAPQTSIVDECCFRSCDLRRLEMYCAPLKPAVQAQQHTDMPKTQKEVHLKNASRGSAGNKNYQMCPPCPAPEAAGGPSVFLFPPKPKDTLMISRTPEVTCVVVDVSHEDPEVKFNWYVDGVEVHNAKTKPREEQYNSTYRVVSVLTVLHQDWLNGKEYKCKVSNKALPAPIEKTISKAKGQPREPQVYTLPPSREEMTKNQVSLTCLVKGFYPSDIAVEWESNGQPENNYKTTPPVLDSDGSFFLYSKLTVDKSRWQQGNVFSCSVMHEALHNHYTQKSLSLSPGK", "notes": "Modified human IGF-1-Ea precursor joined by hinge 1 to a hIgG1 LALA Fc"}}, "target": "T1, rec. human IGF-1R (R&D Systems, 391-GR) (human, UniProt P08069 31-932)", "T1 construct": "Bought soluble protein, used as the analyte in SPR; also called rhIGF1R; recombinant human IGF-1R", "T1 sequence (P08069 31-932 limits assumed)": "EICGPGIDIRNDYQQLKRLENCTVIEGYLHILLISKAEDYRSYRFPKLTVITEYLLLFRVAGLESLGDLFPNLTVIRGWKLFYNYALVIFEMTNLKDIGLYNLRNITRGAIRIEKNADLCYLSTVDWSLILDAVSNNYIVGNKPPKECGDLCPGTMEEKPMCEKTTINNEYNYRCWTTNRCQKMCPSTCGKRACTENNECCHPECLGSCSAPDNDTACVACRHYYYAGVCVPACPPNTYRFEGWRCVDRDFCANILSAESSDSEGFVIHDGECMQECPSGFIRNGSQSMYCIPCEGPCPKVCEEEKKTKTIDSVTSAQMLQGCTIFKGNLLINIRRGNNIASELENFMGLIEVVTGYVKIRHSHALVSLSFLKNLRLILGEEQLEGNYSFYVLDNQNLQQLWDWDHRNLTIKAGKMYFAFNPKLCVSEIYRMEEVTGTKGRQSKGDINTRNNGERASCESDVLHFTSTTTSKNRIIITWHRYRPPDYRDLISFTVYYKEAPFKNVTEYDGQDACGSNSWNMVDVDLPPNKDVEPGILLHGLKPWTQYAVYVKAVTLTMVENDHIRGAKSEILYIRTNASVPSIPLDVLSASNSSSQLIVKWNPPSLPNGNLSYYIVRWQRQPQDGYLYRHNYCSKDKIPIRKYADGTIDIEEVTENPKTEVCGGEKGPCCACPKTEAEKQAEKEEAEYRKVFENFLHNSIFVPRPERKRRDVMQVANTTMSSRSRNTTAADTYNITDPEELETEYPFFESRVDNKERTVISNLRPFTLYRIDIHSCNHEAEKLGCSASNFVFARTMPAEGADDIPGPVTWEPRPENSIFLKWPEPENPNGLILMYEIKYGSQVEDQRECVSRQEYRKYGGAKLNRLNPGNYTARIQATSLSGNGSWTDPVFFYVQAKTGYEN", "assay": "SPR (Biacore T200), ligand immobilised on CM5 chip, rec. human IGF-1R as analyte, 1:1 model", "description": "The binding properties were characterized by SPR using a Biacore T200 instrument at 25° C. […] The analyte concentration ranges were adapted to the individual interaction and ranged from 1000-3.9 nM (IGF-1R). […] Kinetic rate constants and KD were calculated by fitting double-referenced sensorgrams to a 1:1 binding model.\nA direct binding assay was performed. […] The resulting sensorgrams were fitted to a 1:1 interaction model to calculate the equilibrium dissociation constants (KD)."}
{"binder": "B1", "values": [{"measurement": "binding result", "result": "binds"}]}
